Results taken from publication PMC12069617.

How the values were obtained:
Experiment in all cases: SEC-MALS
[1] = target: PR-B (progesterone receptor isoform B);SRC3 (steroid receptor coactivator 3) (human?;human?, UniProt P06401;Q9Y6Q9 1-933;1-1424, |)
[2] = target: PR-A (progesterone receptor isoform A);SRC3 (steroid receptor coactivator 3);p300 (human?;human?;human?, UniProt P06401;Q9Y6Q9;Q09472 165-933;1-1424;1-2414, ||)
[3] = target: PR-B (progesterone receptor isoform B) (UniProt P06401 1-933)
[4] = target: PR-A (progesterone receptor isoform A);SRC3 (steroid receptor coactivator 3) (human?;human?, UniProt P06401;Q9Y6Q9 165-933;1-1424, |)
[5] = target: PR-A (progesterone receptor isoform A) (UniProt P06401 165-933)
[6] = target: PR-B (progesterone receptor isoform B);SRC3 (steroid receptor coactivator 3);p300 (human?;human?;human?, UniProt P06401;Q9Y6Q9;Q09472 1-933;1-1424;1-2414, ||)

Measured: binding result

Chain of PR-B (progesterone receptor isoform B);SRC3 (steroid receptor coactivator 3);p300 (P06401 whole entry, chain 1 of 3, canonical isoform): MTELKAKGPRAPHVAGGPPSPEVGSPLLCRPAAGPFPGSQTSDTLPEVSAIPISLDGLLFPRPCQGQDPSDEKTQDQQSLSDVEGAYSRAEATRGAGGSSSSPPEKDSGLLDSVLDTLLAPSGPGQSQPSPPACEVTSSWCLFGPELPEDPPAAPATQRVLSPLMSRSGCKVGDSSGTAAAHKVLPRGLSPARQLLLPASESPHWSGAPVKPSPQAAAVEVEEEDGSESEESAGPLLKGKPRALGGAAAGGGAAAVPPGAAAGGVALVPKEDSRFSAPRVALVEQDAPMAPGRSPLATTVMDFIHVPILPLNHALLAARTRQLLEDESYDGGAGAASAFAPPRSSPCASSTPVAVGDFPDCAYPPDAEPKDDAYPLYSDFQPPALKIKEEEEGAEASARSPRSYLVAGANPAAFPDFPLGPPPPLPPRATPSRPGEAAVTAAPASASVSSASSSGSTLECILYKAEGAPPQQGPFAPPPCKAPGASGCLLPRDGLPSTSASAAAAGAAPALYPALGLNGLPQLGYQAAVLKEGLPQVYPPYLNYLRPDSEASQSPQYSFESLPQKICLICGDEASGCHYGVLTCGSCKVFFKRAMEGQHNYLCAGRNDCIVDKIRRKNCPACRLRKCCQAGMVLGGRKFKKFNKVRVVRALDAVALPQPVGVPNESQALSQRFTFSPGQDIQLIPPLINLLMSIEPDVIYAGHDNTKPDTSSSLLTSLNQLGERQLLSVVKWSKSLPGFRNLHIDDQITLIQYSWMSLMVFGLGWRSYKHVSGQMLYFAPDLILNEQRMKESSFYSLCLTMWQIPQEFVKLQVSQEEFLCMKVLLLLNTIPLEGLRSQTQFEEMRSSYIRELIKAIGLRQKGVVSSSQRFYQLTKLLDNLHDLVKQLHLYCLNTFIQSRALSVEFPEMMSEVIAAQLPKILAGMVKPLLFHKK
Chain of PR-B (progesterone receptor isoform B);SRC3 (steroid receptor coactivator 3);p300 (Q9Y6Q9 whole entry, chain 2 of 3, canonical isoform): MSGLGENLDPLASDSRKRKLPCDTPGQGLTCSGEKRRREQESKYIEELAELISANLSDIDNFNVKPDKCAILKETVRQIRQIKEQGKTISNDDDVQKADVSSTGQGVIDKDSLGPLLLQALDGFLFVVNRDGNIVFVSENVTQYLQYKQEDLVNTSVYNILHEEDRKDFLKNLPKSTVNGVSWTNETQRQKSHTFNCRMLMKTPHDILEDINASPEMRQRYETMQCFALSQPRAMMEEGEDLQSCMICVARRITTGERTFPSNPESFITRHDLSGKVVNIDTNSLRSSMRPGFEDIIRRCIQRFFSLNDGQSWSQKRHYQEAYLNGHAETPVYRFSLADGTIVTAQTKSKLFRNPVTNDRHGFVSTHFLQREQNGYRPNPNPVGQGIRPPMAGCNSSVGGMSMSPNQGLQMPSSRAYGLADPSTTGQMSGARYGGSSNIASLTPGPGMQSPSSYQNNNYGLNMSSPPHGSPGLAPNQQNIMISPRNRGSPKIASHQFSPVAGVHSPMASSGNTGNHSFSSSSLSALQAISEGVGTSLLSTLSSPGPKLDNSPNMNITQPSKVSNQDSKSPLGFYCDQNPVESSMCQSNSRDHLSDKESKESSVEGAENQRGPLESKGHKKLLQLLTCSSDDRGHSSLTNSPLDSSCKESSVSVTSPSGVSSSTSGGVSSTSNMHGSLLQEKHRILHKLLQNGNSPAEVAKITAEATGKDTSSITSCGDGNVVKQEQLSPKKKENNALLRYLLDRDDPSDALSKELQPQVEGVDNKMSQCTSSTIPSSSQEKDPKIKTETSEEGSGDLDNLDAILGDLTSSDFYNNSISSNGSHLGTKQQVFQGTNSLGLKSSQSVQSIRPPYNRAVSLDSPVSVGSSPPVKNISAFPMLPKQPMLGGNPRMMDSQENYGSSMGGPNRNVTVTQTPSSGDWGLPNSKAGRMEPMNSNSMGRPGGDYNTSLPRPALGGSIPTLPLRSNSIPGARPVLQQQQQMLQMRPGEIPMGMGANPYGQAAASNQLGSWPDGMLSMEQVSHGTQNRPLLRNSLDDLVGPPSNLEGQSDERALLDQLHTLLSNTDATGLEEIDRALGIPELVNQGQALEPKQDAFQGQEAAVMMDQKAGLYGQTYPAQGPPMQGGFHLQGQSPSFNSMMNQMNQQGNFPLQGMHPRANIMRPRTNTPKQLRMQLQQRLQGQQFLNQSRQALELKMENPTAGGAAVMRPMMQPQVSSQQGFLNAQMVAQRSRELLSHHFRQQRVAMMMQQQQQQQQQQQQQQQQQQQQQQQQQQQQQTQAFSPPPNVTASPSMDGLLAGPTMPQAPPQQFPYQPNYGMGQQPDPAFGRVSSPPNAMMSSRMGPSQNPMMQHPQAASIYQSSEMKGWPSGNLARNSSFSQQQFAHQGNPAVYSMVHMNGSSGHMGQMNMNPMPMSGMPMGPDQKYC
Chain of PR-B (progesterone receptor isoform B);SRC3 (steroid receptor coactivator 3);p300 (Q09472 whole entry, chain 3 of 3, canonical isoform): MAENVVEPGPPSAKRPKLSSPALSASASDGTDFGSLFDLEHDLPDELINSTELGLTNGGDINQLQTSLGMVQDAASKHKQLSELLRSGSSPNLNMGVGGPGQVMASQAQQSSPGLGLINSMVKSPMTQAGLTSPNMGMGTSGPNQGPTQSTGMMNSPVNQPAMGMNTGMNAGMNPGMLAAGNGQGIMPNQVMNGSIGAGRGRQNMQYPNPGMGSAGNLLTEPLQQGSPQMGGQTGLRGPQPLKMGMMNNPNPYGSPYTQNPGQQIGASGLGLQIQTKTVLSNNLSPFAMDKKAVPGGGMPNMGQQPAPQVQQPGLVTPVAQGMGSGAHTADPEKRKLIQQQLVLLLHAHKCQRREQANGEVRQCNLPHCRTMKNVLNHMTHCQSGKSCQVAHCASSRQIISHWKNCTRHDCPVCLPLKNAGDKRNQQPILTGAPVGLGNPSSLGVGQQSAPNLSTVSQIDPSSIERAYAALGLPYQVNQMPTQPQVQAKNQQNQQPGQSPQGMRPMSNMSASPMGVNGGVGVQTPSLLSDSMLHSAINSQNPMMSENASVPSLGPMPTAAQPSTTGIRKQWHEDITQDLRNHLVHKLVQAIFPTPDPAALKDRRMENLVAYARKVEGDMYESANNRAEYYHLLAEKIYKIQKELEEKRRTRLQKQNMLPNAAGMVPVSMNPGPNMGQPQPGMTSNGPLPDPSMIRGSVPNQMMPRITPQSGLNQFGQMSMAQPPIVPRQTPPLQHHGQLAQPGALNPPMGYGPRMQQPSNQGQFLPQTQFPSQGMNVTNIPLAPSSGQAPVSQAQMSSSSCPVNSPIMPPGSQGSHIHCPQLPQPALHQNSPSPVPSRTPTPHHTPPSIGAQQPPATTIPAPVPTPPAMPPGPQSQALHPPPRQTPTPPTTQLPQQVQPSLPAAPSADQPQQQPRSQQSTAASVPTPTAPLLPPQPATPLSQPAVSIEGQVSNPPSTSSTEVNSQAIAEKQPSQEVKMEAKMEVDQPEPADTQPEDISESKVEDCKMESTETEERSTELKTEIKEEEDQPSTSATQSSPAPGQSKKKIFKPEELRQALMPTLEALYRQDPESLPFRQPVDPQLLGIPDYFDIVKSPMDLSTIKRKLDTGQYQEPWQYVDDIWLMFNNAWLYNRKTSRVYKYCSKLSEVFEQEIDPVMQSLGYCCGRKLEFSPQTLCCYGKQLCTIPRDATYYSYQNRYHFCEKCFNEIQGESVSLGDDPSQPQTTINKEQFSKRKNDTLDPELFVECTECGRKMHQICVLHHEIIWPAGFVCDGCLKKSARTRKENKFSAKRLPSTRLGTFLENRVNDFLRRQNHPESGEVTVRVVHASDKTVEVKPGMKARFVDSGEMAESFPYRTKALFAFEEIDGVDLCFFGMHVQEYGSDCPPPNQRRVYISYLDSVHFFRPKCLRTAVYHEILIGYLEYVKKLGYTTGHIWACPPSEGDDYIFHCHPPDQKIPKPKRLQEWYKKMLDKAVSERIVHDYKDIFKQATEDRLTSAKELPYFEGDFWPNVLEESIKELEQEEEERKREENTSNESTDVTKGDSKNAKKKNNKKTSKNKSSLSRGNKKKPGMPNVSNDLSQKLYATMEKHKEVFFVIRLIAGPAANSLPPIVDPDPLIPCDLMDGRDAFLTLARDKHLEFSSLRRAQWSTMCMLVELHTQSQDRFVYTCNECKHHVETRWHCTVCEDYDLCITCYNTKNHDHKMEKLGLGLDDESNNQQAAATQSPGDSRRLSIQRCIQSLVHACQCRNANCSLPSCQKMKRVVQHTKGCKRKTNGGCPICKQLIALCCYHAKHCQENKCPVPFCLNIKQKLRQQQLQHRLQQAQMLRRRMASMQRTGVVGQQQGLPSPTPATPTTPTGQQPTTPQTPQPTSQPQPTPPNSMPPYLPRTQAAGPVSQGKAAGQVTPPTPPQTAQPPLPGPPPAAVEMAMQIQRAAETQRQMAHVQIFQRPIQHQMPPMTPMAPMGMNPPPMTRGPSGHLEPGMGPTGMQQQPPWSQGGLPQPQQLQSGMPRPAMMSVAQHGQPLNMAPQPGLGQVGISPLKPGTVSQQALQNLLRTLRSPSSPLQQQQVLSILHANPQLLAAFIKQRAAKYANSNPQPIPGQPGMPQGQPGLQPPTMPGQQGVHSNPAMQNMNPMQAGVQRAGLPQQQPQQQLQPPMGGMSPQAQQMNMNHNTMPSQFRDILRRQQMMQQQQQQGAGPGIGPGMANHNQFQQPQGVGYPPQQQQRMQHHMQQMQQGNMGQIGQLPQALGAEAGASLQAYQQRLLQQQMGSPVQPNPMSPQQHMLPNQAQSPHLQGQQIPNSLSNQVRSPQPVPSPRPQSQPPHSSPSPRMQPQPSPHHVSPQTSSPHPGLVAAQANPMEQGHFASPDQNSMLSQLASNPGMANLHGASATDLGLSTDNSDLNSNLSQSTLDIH
Chain of PR-B (progesterone receptor isoform B) (P06401 whole entry, canonical isoform): as the sequence (P06401 whole entry, chain 1 of 3, canonical isoform) above
Chain of PR-B (progesterone receptor isoform B);SRC3 (steroid receptor coactivator 3) (P06401 whole entry, chain 1 of 2, canonical isoform): as the sequence (P06401 whole entry, chain 1 of 3, canonical isoform) above
Chain of PR-B (progesterone receptor isoform B);SRC3 (steroid receptor coactivator 3) (Q9Y6Q9 whole entry, chain 2 of 2, canonical isoform): as the sequence (Q9Y6Q9 whole entry, chain 2 of 3, canonical isoform) above

B1: 32-mer PRE (progesterone response element) (dsDNA)
DNA 1: CATCTTTGAGAACAAACTGTTCTTAAAACGAG
DNA 2: CTCGTTTTAAGAACAGTTTGTTCTCAAAGATG
binds: all assays above
